Data as given in patent US20250277048A1.

Biological target: human CD40 (hCD40) expressed on cells (human) (UniProt P25942)
Experiment: cell-based or functional assay

Chain of human CD40 (hCD40) expressed on cells (human) (P25942 21-277): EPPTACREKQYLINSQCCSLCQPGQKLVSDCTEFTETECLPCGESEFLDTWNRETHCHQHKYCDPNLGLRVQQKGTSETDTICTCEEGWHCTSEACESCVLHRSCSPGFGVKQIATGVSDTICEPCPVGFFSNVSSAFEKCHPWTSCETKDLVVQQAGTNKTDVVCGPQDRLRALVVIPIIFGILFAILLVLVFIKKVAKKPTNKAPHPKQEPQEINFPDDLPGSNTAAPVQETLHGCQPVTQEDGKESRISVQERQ

EC50 of activation, Raji/NFkB-luc: 0.691 nM
EC50 of activation, Ramos.2G6.4C10/NFkB-luc: 0.436 nM
EC50 of activation, THP-1/NFkB-luc: 1.47 nM
Substance: human CD40L (soluble, used in the cell assays) (from UniProt P29965 113-261) (ligand)
